# Test results taken from patent US20250236644A1 (University of Washington, published 2025).
# T1: TAMRA-labeled effector peptide cs094B (5(6)-TAMRA label coupled on resin after synthesis)
# T1 construct: also called TAMRA-cs094B
# T1 peptide: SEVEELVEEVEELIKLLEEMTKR
# T2: TAMRA-labeled effector peptide cs221B (5(6)-TAMRA label coupled on resin after synthesis)
# T2 construct: also called TAMRA-cs221B
# T2 peptide: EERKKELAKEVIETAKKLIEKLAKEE
# T3: TAMRA-labeled effector peptide cs201B (5(6)-TAMRA label coupled on resin after synthesis)
# T3 construct: also called TAMRA-cs201B
# T3 peptide: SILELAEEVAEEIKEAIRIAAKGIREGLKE
# T4: TAMRA-labeled effector peptide cs074B (5(6)-TAMRA label coupled on resin after synthesis)
# T4 construct: Chemically synthesized; also called TAMRA-cs074B
# T4 peptide: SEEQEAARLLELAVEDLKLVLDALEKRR
# T5: TAMRA-labeled effector peptide cs217B (5(6)-TAMRA label coupled on resin after synthesis)
# T5 construct: also called TAMRA-cs217B
# T5 peptide: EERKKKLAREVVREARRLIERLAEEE
# T6: TAMRA-labeled effector peptide cs207B (5(6)-TAMRA label coupled on resin after synthesis)
# T6 construct: also called TAMRA-cs207B
# T6 peptide: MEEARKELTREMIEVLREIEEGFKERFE
# Columns and labels:
# [1] = biological target: T1, TAMRA-labeled effector peptide cs094B; experiment: fluorescence polarization kinetics; slope of kapp against hinge concentration
# Description: (§1) All FP measurements were performed at 25° C. in 96-well plates (Corning 3686) using a Synergy Neo2™ plate reader and a 530/590 nm filter cube. The buffer for all FP measurements was 20 mM Tris-HCl, 100 mM NaCl, 0.05% v/v TWEEN20 at pH 8. Titrations were carried out in 96-well format, with 4 replicates per plate and 24 data points per titration (23 steps of two-fold serial dilution of hinges in the presence of TAMRA-labeled peptide at a constant concentration between 0.1 nM and 1 nM) with a final sample volume of 80 μl per well. Titration plates were incubated overnight at room temperature before measuring to ensure complete equilibration. The polarization signal S (as calculated by the Neo2™ software) was fitted to the equation
# (§2) For FP kinetics experiments a 2× peptide solution and 8 different 2× hinge solutions at different concentrations were prepared separately. 40 μl of each hinge solution were mixed with 40 μl peptide solution using a multichannel pipet and the measurement was started immediately after mixing. Polarization signals S at each concentration were fitted individually to the equation
# [2] = biological target: T1, TAMRA-labeled effector peptide cs094B; experiment: fluorescence polarization titration; TAMRA-peptide constant, hinge varied
# Excerpt: (§3) We used our hinge design approach to generate hinge-peptide pairs that span a wide structural space (FIGS. 1D, 2A, 6, 7). We experimentally tested multiple rounds of designs, using both DHRs (21) and helical junctions (22) as input scaffolds, and improving individual steps of the design pipeline between iterations. Designs for which hinge and GFP-fused peptide were soluble and interacted as judged by size exclusion chromatography (SEC, FIGS. 7-8) were selected for further characterization by fluorescence polarization (FP). […] To circumvent the bottleneck of finding soluble peptide sequences, we also sought to design hinges that bind to a given target peptide. Starting from design cs201, we used a modified version of our design pipeline to redesign the hinge to bind peptides cs074B or cs221B, respectively, which have similar hydrophobic fingerprints as the original target peptide cs201B.
# as §1
# [3] = biological target: T2, TAMRA-labeled effector peptide cs221B; experiment: fluorescence polarization titration; 1 nM TAMRA-peptide, unlabeled hinge varied
# Description: as §1
# [4] = biological target: T3, TAMRA-labeled effector peptide cs201B; experiment: FP titration, 1 nM peptide, hinge varied
# Description: (§4) FIG. 10. Redesign of hinges to bind other target peptides. An experimentally tested hinge (top, cs201) is redesigned using a one-sided two-state design approach to bind to different target peptides. Hinges csw13 and csw20 are designed to bind to peptides cs221B and cs074B, respectively, while having a backbone conformation that is similar to the parent cs201 that binds cs201B. Left: design models, right: FP titrations using 1 nM peptide (cs201B, cs221B, cs074B, js007B) and varying concentrations of hinge (from top to bottom: cs201, csw13, csw20). csw13 is an example of a successful orthogonal redesign that specifically binds the new target peptide cs221B while not binding the parent target peptide cs201B or the off-target peptides cs074B or js007B. csw20 is a less orthogonal example that binds the new target peptide cs074B most strongly but still binds to the parent-target peptide cs201B and to the off-target peptide cs221B albeit weaker than the new target.
# as §1
# [5] = biological target: T4, TAMRA-labeled effector peptide cs074B; experiment: FP titration, 1 nM peptide, hinge varied
# Description: as §4, §1
# [6] = biological target: T2, TAMRA-labeled effector peptide cs221B; experiment: FP titration, 1 nM peptide, hinge varied
# Description: as §4, §1
# [7] = biological target: T5, TAMRA-labeled effector peptide cs217B; experiment: fluorescence polarization titration; signal never reached a plateau, only a lower bound can be estimated
# Description: as §1
# [8] = biological target: T3, TAMRA-labeled effector peptide cs201B; experiment: fluorescence polarization kinetics; slope of kapp against hinge concentration
# Description: as §1, §2
# [9] = biological target: T3, TAMRA-labeled effector peptide cs201B; experiment: fluorescence polarization titration; TAMRA-peptide constant, hinge varied
# Excerpt: as §3, §1
# [10] = biological target: T2, TAMRA-labeled effector peptide cs221B; experiment: fluorescence polarization kinetics; slope of kapp against hinge concentration
# Description: as §1, §2
# [11] = biological target: T2, TAMRA-labeled effector peptide cs221B; experiment: fluorescence polarization titration; TAMRA-peptide constant, hinge varied
# Excerpt: as §3, §1
# [12] = biological target: T2, TAMRA-labeled effector peptide cs221B; experiment: fluorescence polarization kinetics
# Excerpt: To test the effect of the conformational pre-equilibrium on effector binding, we introduced disulfide “staples” that lock the hinge in one conformation. Using FP we analyzed peptide binding to stapled versions of hinge cs221 (FIG. 5A,B). […] Using the pre-equilibrium model described above, the observed association rates provide an estimate of the fraction of hinge that is in state Y in absence of the peptide: a 200-fold higher observed on rate for the locked Y variant indicates a 200-fold higher fraction of hinge in state Y compared to the original hinge. Assuming that the locked Y variant is 100% in state Y and assuming that the microscopic rate constant k₂ is identical for the locked Y hinge and state Y of the original hinge, this would indicate that the original hinge is 99.5% in state X and 0.5% in state Y at equilibrium.
# as §2
# [13] = biological target: T6, TAMRA-labeled effector peptide cs207B; experiment: fluorescence polarization titration; TAMRA-peptide constant, hinge varied
# Excerpt: as §3, §1
Binder,kon [10] [M⁻¹ s⁻¹],Kd [11] [nM],also measured
hinge cs094 (designed binder) MSGDEEERLRQEVEKAEKELEKLAKQSTDEEVRKMVREVAKQLRRLAEEAIRQKDDEALRQATEVVKMVQEAVKVAQKTTDQKVILLLLAVALVAIKVAQLAIRSDDTEALRLARIVIRAVQLLVKLVQKTTDPEVRRTALRVAELLAKLAKEAIERNDEEALREASEVVKEVQELVKEAEKSTDEEEIRELLQRAEERIREAQERIREGSGSHHWGSTHHHHHH,–,–,kon [1]: 9400 M⁻¹ s⁻¹; Kd [2]: 830 nM
"FRET(extension) cs221F, unlabeled (designed binder, also called unlabeled extended hinge cs221F) MSGEMVEEIEKLAEELAKKTKDCEVKKLAKKAAELAKKSTDEMKKEIVKDALELALRTKDEEVIRLALKAAVLAAESDDEEVKEVVKKALEAALKSKDEEVIRLLLLAAVLAAAAARSGSPEEKLEIAKKALELAMKSKDEEVIRLALLAAVLAARSDDEEVLKIVKKALELAMESKDVEVIRLALEAAVLAARSTDPEKKKCVYEALEKAMESKDEEEIKKELKAAVEKARSTEGSGSHHWGSTHHHHHH",–,–,Kd [3]: 23 nM
swapped target hinge csw20 (designed binder) MSGMEEVKELVEKAEELAKEAEELIKKAKKTGNPELLKEALRKLKEAVELAKEAVELDPEHEEAIELLARLAEKLLEVAKLLIELAKKTGNPELLKEALRALKEAREALRLAAEHAPEDAKLLARLAARLAELALLIAKILIELAKKTGNPELLLKALKVLTLAVEAVEAALEADPRLKEAVRVAKELAEVLKELAKLAKELAKKTGNEELKEAAKEAEEVAKRAEELAREAEGSGSHHWGSTHHHHHH,–,–,binding result [4]: binds; binding result [5]: binds; binding result [6]: binds
hinge cs217 (designed binder) MSGEMKEEIRRLAEELEKKTKDEEVKELARKAAELAEKSDNEEVLEVVKEALRAALKSKDEEVRRLLLEAAVLAAAAESSGSPEEKLEVALRAIRLAEKSKDEEVRRLALEAAVLAAESDDEEVLEEVLRALRRAEESKDEEERREELREAVRRAREGSGSHHWGSTHHHHHH,–,–,Kd [7]: 20000 nM
"hinge cs201 (designed binder, also called unlabeled hinge cs201) MSGDEEVQEAVERAEELREEAEELIKKARKTGDPELLRKALEALKEAVRAVREAIKRNPDNEEAIKTALRLARELRKVAKELIERARKTGDAELLKKALEAARVAVEAVRLAAEYNKENAEKMAELLVELAELAREVADVLIELAEKTGDPELLKKALEVLEEAVEAVRLAIEYDPDHEEAVETAKRLAEELRKVAELLEERAKETGDPELQELAKRAKEVADRARELAKKSNGSGSHHWGSTHHHHHH",–,–,kon [8]: 6700 M⁻¹ s⁻¹; Kd [9]: 22 nM
"hinge cs221 (designed binder, also called original cs221; parent hinge without cysteines) MSGEMKEEIRRLAEELRERTKDEEVRELAREAARLAEESDDEEVKEVVKKALEAALKSKDEEVIRLLLLAAVLAAAAARSGSPEEKLEIAKKALELAMKSKDEEVIRLALLAAVLAARSDDEEVLKKVKEALEKAMESKDVEEIRERLREAVEVARAGSGSHHWGSTHHHHHH",3400,2,–
"cs221_L66T (designed binder, Point mutant of hinge cs221) MSGEMKEEIRRLAEELRERTKDEEVRELAREAARLAEESDDEEVKEVVKKALEAALKSKDEEVIRLLLTAAVLAAAAARSGSPEEKLEIAKKALELAMKSKDEEVIRLALLAAVLAARSDDEEVLKKVKEALEKAMESKDVEEIRERLREAVEVARAGSGSHHWGSTHHHHHH",2700,38.3,–
"cs221_A114T (designed binder, Point mutant of hinge cs221) MSGEMKEEIRRLAEELRERTKDEEVRELAREAARLAEESDDEEVKEVVKKALEAALKSKDEEVIRLLLLAAVLAAAAARSGSPEEKLEIAKKALELAMKSKDEEVIRLALLAAVLATRSDDEEVLKKVKEALEKAMESKDVEEIRERLREAVEVARAGSGSHHWGSTHHHHHH",27700,0.2,–
"cs221_A73E (designed binder, Point mutant of hinge cs221) MSGEMKEEIRRLAEELRERTKDEEVRELAREAARLAEESDDEEVKEVVKKALEAALKSKDEEVIRLLLLAAVLAAEAARSGSPEEKLEIAKKALELAMKSKDEEVIRLALLAAVLAARSDDEEVLKKVKEALEKAMESKDVEEIRERLREAVEVARAGSGSHHWGSTHHHHHH",1900,4.9,–
"hinge cs207 (designed binder, also called cs207A) MSGTEDERRELEKVARKAIEAAREGNTDEVREQLQRALEIARESGSEEAFKLALEVVRRVAEVAARAGNVEAVKEALRVALEIVKEAMELIKDPEAIVRLALEAVRVVAEVAARAGAVEAVKVALRVALEIAKIAGTEEAVRLALEVVKRVSDIAKKAGNEDAVKEAEEVRKKIEEESGGSGSHHWGSTHHHHHH",–,–,Kd [13]: 820 nM

# Continued, in another order:
kon [10] [M⁻¹ s⁻¹],Kd [11] [nM],Binder,also measured
76200,0.1,"cs221_V111L_A114T (designed binder, Double mutant of hinge cs221; also called cs221-mut) MSGEMKEEIRRLAEELRERTKDEEVRELAREAARLAEESDDEEVKEVVKKALEAALKSKDEEVIRLLLLAAVLAAAAARSGSPEEKLEIAKKALELAMKSKDEEVIRLALLAALLATRSDDEEVLKKVKEALEKAMESKDVEEIRERLREAVEVARAGSGSHHWGSTHHHHHH",fold higher on rate than the original cs221 [12]: 22 fold
24300,0.3,"cs221_V111L (designed binder, Point mutant of hinge cs221) MSGEMKEEIRRLAEELRERTKDEEVRELAREAARLAEESDDEEVKEVVKKALEAALKSKDEEVIRLLLLAAVLAAAAARSGSPEEKLEIAKKALELAMKSKDEEVIRLALLAALLAARSDDEEVLKKVKEALEKAMESKDVEEIRERLREAVEVARAGSGSHHWGSTHHHHHH",–
790000,12,"variant cs221_lockedY (designed binder, disulfide bond between the two introduced cysteines (locks the hinge in state Y; oxidized with copper phenanthroline), also called cs221 locked Y hinge variant) MSGEMKEEIRRLAEELRERTKDEEVRELAREAARLAEESDDEEVKEVVKKALEAALKSKDEEVIRLLLCAAVLAAAAARSGSPEEKLEIAKKALELAMKSKDEEVIRLACLAAVLAARSDDEEVLKKVKEALEKAMESKDVEEIRERLREAVEVARAGSGSHHWGSTHHHHHH",fold higher association rate than the original hinge cs221 [12]: 200 fold
